Key:
CD2 = CD2 (Homo sapiens (Human), UniProt P06729); experiment: flow cytometry, CHO-CD2 cells
human PD-1 = human PD-1 (human, UniProt Q15116); experiment: flow cytometry, Jurkat/IL-2/PD-1 cells
human CD86 = biological target: T1, human CD86 (human); experiment: cell-based or functional assay
T1 chain: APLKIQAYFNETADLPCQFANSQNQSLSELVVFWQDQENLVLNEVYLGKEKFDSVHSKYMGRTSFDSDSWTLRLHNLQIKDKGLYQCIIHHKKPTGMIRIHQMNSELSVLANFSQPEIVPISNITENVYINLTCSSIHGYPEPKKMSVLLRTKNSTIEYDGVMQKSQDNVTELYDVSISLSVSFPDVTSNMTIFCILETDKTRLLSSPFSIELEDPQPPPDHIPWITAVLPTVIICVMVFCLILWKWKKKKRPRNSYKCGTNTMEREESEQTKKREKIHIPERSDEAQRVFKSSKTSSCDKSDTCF

PD-1 = PD-1 (human, UniProt Q15116); experiment: cell-based or functional assay

B1: CD58 3650-PD-L1 303-Fc (Fc fusion)
chain: SQQIYGVVYGNVTFHVPSNVPLKEVLWKKQKDKVAELENSEFRAFSSFKNRVYLDTVSGSLTIYNLTSSDEDEYEMESPNITDTMKFFLYVLESGGGGSGGGGSGGGGSFTVTVPKDLYVVEYGSNMTIECKFPVEKQLDLAALIVYWEMEGKDIIQFVHGEEDQKAQHSSYRQRARLLKDQLSLGNAALQITDVKLQDAGVYRCMISYGGGADYKRITVKVNAGSGGGGSEPKSSDKTHTCPPCPAPEAEGAPSVFLFPPKPKDTLMISRTPEVTCVVVDVSHEDPEVKFNWYVDGVEVHNAKTKPREEQYNSTYRVVSVLTVLHQDWLNGKEYKCKVSNKALPAPIEKTISKAKGQPREPQVYTLPPSRDELTKNQVSLTCLVKGFYPSDIAVEWESNGQPENNYKTTPPVLDSDGSFFLYSKLTVDKSRWQQGNVFSCSVMHEALHNHYTQKSLSLSPG
EC50 (CD2): 2 nM | EC50 (human PD-1): 4.6 nM

B2: PD-L1 303-CD58 3650-Fc (Fc fusion)
chain: FTVTVPKDLYVVEYGSNMTIECKFPVEKQLDLAALIVYWEMEGKDIIQFVHGEEDQKAQHSSYRQRARLLKDQLSLGNAALQITDVKLQDAGVYRCMISYGGGADYKRITVKVNAGGGGSGGGGSGGGGSSQQIYGVVYGNVTFHVPSNVPLKEVLWKKQKDKVAELENSEFRAFSSFKNRVYLDTVSGSLTIYNLTSSDEDEYEMESPNITDTMKFFLYVLESGSGGGGSEPKSSDKTHTCPPCPAPEAEGAPSVFLFPPKPKDTLMISRTPEVTCVVVDVSHEDPEVKFNWYVDGVEVHNAKTKPREEQYNSTYRVVSVLTVLHQDWLNGKEYKCKVSNKALPAPIEKTISKAKGQPREPQVYTLPPSRDELTKNQVSLTCLVKGFYPSDIAVEWESNGQPENNYKTTPPVLDSDGSFFLYSKLTVDKSRWQQGNVFSCSVMHEALHNHYTQKSLSLSPG
EC50 (CD2): 0.661 nM | EC50 (human PD-1): 1.2 nM

B3: PD-L1 303-PD-L1 303-CD58 3650-CD58 3650 (other)
chain: FTVTVPKDLYVVEYGSNMTIECKFPVEKQLDLAALIVYWEMEGKDIIQFVHGEEDQKAQHSSYRQRARLLKDQLSLGNAALQITDVKLQDAGVYRCMISYGGGADYKRITVKVNAGGGGSGGGGSGGGGSFTVTVPKDLYVVEYGSNMTIECKFPVEKQLDLAALIVYWEMEGKDIIQFVHGEEDQKAQHSSYRQRARLLKDQLSLGNAALQITDVKLQDAGVYRCMISYGGGADYKRITVKVNAGGGGSGGGGSGGGGSSQQIYGVVYGNVTFHVPSNVPLKEVLWKKQKDKVAELENSEFRAFSSFKNRVYLDTVSGSLTIYNLTSSDEDEYEMESPNITDTMKFFLYVLESGSGGSGGGGSGGGGSSQQIYGVVYGNVTFHVPSNVPLKEVLWKKQKDKVAELENSEFRAFSSFKNRVYLDTVSGSLTIYNLTSSDEDEYEMESPNITDTMKFFLYVLESGSGGGGSDYKDDDDKHHHHHH
EC50 (CD2): 13.7 nM | EC50 (human PD-1): 2 nM

B4: CD58 3650-CD58 3650-PD-L1 303-PD-L1 303 (other)
chain: SQQIYGVVYGNVTFHVPSNVPLKEVLWKKQKDKVAELENSEFRAFSSFKNRVYLDTVSGSLTIYNLTSSDEDEYEMESPNITDTMKFFLYVLESGGGGSGGGGSGGGGSSQQIYGVVYGNVTFHVPSNVPLKEVLWKKQKDKVAELENSEFRAFSSFKNRVYLDTVSGSLTIYNLTSSDEDEYEMESPNITDTMKFFLYVLESGGGGSGGGGSGGGGSFTVTVPKDLYVVEYGSNMTIECKFPVEKQLDLAALIVYWEMEGKDIIQFVHGEEDQKAQHSSYRQRARLLKDQLSLGNAALQITDVKLQDAGVYRCMISYGGGADYKRITVKVNAGSGGSGGGGSGGGGSFTVTVPKDLYVVEYGSNMTIECKFPVEKQLDLAALIVYWEMEGKDIIQFVHGEEDQKAQHSSYRQRARLLKDQLSLGNAALQITDVKLQDAGVYRCMISYGGGADYKRITVKVNAGSGGGGSDYKDDDDKHHHHHH
EC50 (CD2): 24.4 nM | EC50 (human PD-1): 19.5 nM

B5: CTLA-4 3037-PD-L1 303-Fc (SEQ ID NO 3666) (Fc fusion)
chain: KAMHVAQPAVVLASSRGIASFVCEYASPWKATEVRVTVLRQADSQVTEVCAATYMMGSELTFPDDSICTGTSSGNQVNLTIRGLRAMDTGLYICKVEQMYPPPYLLGIGNGTQIYVIDPEPCPDSDGSGGSGGGGSGGGGSFTVTVPKDLYVVEYGSNMTIECKFPVEKQLDLAALIVYWEMEGKDIIQFVHGEEDQKAQHSSYRQRARLLKDQLSLGNAALQITDVKLQDAGVYRCMISYGGGADYKRITVKVNAGGGGSGSGGGGSEPKSSDKTHTCPPCPAPEAEGAPSVFLFPPKPKDTLMISRTPEVTCVVVDVSHEDPEVKFNWYVDGVEVHNAKTKPREEQYNSTYRVVSVLTVLHQDWLNGKEYKCKVSNKALPAPIEKTISKAKGQPREPQVYTLPPSRDELTKNQVSLTCLVKGFYPSDIAVEWESNGQPENNYKTTPPVLDSDGSFFLYSKLTVDKSRWQQGNVFSCSVMHEALHNHYTQKSLSLSPG
100 nM IFN-gamma (pg/mL), SEB assay (human CD86): 2050 pg/mL | 100 nM IFN-gamma (pg/mL), SEB assay (PD-1): 2050 pg/mL

B6: PD-L1 303-CTLA-4 3037-Fc (SEQ ID NO 3668) (Fc fusion)
chain: FTVTVPKDLYVVEYGSNMTIECKFPVEKQLDLAALIVYWEMEGKDIIQFVHGEEDQKAQHSSYRQRARLLKDQLSLGNAALQITDVKLQDAGVYRCMISYGGGADYKRITVKVNAGSGGSGGGGSGGGGSKAMHVAQPAVVLASSRGIASFVCEYASPWKATEVRVTVLRQADSQVTEVCAATYMMGSELTFPDDSICTGTSSGNQVNLTIRGLRAMDTGLYICKVEQMYPPPYLLGIGNGTQIYVIDPEPCPDSDGGGGSGSGGGGSEPKSSDKTHTCPPCPAPEAEGAPSVFLFPPKPKDTLMISRTPEVTCVVVDVSHEDPEVKFNWYVDGVEVHNAKTKPREEQYNSTYRVVSVLTVLHQDWLNGKEYKCKVSNKALPAPIEKTISKAKGQPREPQVYTLPPSRDELTKNQVSLTCLVKGFYPSDIAVEWESNGQPENNYKTTPPVLDSDGSFFLYSKLTVDKSRWQQGNVFSCSVMHEALHNHYTQKSLSLSPG
100 nM IFN-gamma (pg/mL), SEB assay (human CD86): 6100 pg/mL | 100 nM IFN-gamma (pg/mL), SEB assay (PD-1): 6100 pg/mL

B7: CTLA-4 3037-Fc-PD-L1 303 (SEQ ID NO 3670) (Fc fusion)
chain: KAMHVAQPAVVLASSRGIASFVCEYASPWKATEVRVTVLRQADSQVTEVCAATYMMGSELTFPDDSICTGTSSGNQVNLTIRGLRAMDTGLYICKVEQMYPPPYLLGIGNGTQIYVIDPEPCPDSDGSGGGGSEPKSSDKTHTCPPCPAPEAEGAPSVFLFPPKPKDTLMISRTPEVTCVVVDVSHEDPEVKFNWYVDGVEVHNAKTKPREEQYNSTYRVVSVLTVLHQDWLNGKEYKCKVSNKALPAPIEKTISKAKGQPREPQVYTLPPSRDELTKNQVSLTCLVKGFYPSDIAVEWESNGQPENNYKTTPPVLDSDGSFFLYSKLTVDKSRWQQGNVFSCSVMHEALHNHYTQKSLSLSPGGGGGSGGGGSGGGGSFTVTVPKDLYVVEYGSNMTIECKFPVEKQLDLAALIVYWEMEGKDIIQFVHGEEDQKAQHSSYRQRARLLKDQLSLGNAALQITDVKLQDAGVYRCMISYGGGADYKRITVKVNA
100 nM IFN-gamma (pg/mL), SEB assay (human CD86): 1570 pg/mL | 100 nM IFN-gamma (pg/mL), SEB assay (PD-1): 1570 pg/mL

B8: CTLA4 3037-Fc-PD-L1 303 (SEQ ID NO 3672) (Fc fusion)
chain: KAMHVAQPAVVLASSRGIASFVCEYASPWKATEVRVTVLRQADSQVTEVCAATYMMGSELTFPDDSICTGTSSGNQVNLTIRGLRAMDTGLYICKVEQMYPPPYLLGIGNGTQIYVIDPEPCPDSDGSGGGGSEPKSSDKTHTCPPCPAPEAEGAPSVFLFPPKPKDTLMISRTPEVTCVVVDVSHEDPEVKFNWYVDGVEVHNAKTKPREEQYNSTYRVVSVLTVLHQDWLNGKEYKCKVSNKALPAPIEKTISKAKGQPREPQVYTLPPSRDELTKNQVSLTCLVKGFYPSDIAVEWESNGQPENNYKTTPPVLDSDGSFFLYSKLTVDKSRWQQGNVFSCSVMHEALHNHYTQKSLSLSPGGGGGSGGGGSGGGGSAFTVTVPKDLYVVEYGSNMTIECKFPVEKQLDLAALIVYWEMEGKDIIQFVHGEEDQKAQHSSYRQRARLLKDQLSLGNAALQITDVKLQDAGVYRCMISYGGGADYKRITVKVNA
100 nM IFN-gamma (pg/mL), SEB assay (human CD86): 2070 pg/mL | 100 nM IFN-gamma (pg/mL), SEB assay (PD-1): 2070 pg/mL

B9: CTLA-4 3060-PD-L1 303-Fc (Fc fusion)
chain: KAMHVAQPAVVFASSHGIASFVCEYASPWKATEVRVTVLRQADSQVTEVCAATYMTGNELTFLDDSICTGTSSGNQVNLTIQGLRAMDTGLYICKVEQMYPPPYLLGIGNGTQIYVIDPEPCPDSDGSGGSGGGGSGGGGSFTVTVPKDLYVVEYGSNMTIECKFPVEKQLDLAALIVYWEMEGKDIIQFVHGEEDQKAQHSSYRQRARLLKDQLSLGNAALQITDVKLQDAGVYRCMISYGGGADYKRITVKVNAGGGGSGSGGGGSEPKSSDKTHTCPPCPAPEAEGAPSVFLFPPKPKDTLMISRTPEVTCVVVDVSHEDPEVKFNWYVDGVEVHNAKTKPREEQYNSTYRVVSVLTVLHQDWLNGKEYKCKVSNKALPAPIEKTISKAKGQPREPQVYTLPPSRDELTKNQVSLTCLVKGFYPSDIAVEWESNGQPENNYKTTPPVLDSDGSFFLYSKLTVDKSRWQQGNVFSCSVMHEALHNHYTQKSLSLSPG
100 nM IFN-gamma (pg/mL), SEB assay (human CD86): 3790 pg/mL | 100 nM IFN-gamma (pg/mL), SEB assay (PD-1): 3790 pg/mL

B10: PD-L1 303-CTLA4 3060-Fc (Fc fusion)
chain: FTVTVPKDLYVVEYGSNMTIECKFPVEKQLDLAALIVYWEMEGKDIIQFVHGEEDQKAQHSSYRQRARLLKDQLSLGNAALQITDVKLQDAGVYRCMISYGGGADYKRITVKVNAGSGGSGGGGSGGGGSKAMHVAQPAVVFASSHGIASFVCEYASPWKATEVRVTVLRQADSQVTEVCAATYMTGNELTFLDDSICTGTSSGNQVNLTIQGLRAMDTGLYICKVEQMYPPPYLLGIGNGTQIYVIDPEPCPDSDGGGGSGSGGGGSEPKSSDKTHTCPPCPAPEAEGAPSVFLFPPKPKDTLMISRTPEVTCVVVDVSHEDPEVKFNWYVDGVEVHNAKTKPREEQYNSTYRVVSVLTVLHQDWLNGKEYKCKVSNKALPAPIEKTISKAKGQPREPQVYTLPPSRDELTKNQVSLTCLVKGFYPSDIAVEWESNGQPENNYKTTPPVLDSDGSFFLYSKLTVDKSRWQQGNVFSCSVMHEALHNHYTQKSLSLSPG
100 nM IFN-gamma (pg/mL), SEB assay (human CD86): 4470 pg/mL | 100 nM IFN-gamma (pg/mL), SEB assay (PD-1): 4470 pg/mL

B11: CTLA-4 3037-Fc (Fc fusion)
chain: KAMHVAQPAVVLASSRGIASFVCEYASPWKATEVRVTVLRQADSQVTEVCAATYMMGSELTFPDDSICTGTSSGNQVNLTIRGLRAMDTGLYICKVEQMYPPPYLLGIGNGTQIYVIDPEPCPDSDGSGGGGSEPKSSDKTHTCPPCPAPEAEGAPSVFLFPPKPKDTLMISRTPEVTCVVVDVSHEDPEVKFNWYVDGVEVHNAKTKPREEQYNSTYRVVSVLTVLHQDWLNGKEYKCKVSNKALPAPIEKTISKAKGQPREPQVYTLPPSRDELTKNQVSLTCLVKGFYPSDIAVEWESNGQPENNYKTTPPVLDSDGSFFLYSKLTVDKSRWQQGNVFSCSVMHEALHNHYTQKSLSLSPG
100 nM IFN-gamma (pg/mL), SEB assay (human CD86): 807 pg/mL

From US20250163127A1 (published 2025)
